Laboratory results published in PMC11079059, “Development of a new affinity maturation protocol for the construction of an internalizing anti-nucleolin antibody library” (Scientific Reports, 2024).

B1: VHH clone D10 (VHH)
VHH: QVQLQESGGGLVQPGGSLRLSCAASGRASASSARSARAIGWFRQAPGKEREFVARIYWSSGNTYYADSVKGRFAISRDIAKNTVDLTMNNLEPEDTAVYYCAAPQRRSARLSAWGQGTQVTVSS
notes: source: ER2738 E. coli, IPTG induction, purified (Dynabeads His-Tag Isolation & Pulldown)
B2: VHH clone D11 (VHH)
VHH: B1 VHH
notes: as for B1

Molecular target: T1, nucleolin (Homo sapiens, UniProt P19338)
T1 construct: The cells were not transfected; also called cell surface nucleolin; source: endogenous, on nucleolin-overexpressing MDA-MB-435S cells
T1 sequence (P19338 whole entry): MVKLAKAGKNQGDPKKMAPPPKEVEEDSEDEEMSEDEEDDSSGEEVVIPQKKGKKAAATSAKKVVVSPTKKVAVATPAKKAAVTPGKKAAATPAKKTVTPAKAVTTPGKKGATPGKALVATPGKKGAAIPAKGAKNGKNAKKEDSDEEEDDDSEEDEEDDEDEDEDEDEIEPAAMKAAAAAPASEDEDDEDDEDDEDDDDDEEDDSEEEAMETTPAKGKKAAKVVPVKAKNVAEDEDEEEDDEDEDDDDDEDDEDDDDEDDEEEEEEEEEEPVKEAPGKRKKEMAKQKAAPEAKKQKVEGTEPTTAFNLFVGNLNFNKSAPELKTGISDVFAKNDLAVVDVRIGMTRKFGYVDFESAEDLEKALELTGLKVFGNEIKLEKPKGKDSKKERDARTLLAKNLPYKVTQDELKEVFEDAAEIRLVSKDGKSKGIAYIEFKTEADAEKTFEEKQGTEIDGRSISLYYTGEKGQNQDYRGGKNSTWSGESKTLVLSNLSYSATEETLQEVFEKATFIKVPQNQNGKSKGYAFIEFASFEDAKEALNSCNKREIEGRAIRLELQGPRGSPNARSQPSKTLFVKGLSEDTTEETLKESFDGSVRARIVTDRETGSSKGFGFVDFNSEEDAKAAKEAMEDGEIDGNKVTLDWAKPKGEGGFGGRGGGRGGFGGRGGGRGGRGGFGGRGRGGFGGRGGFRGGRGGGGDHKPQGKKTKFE
Assay: flow cytometry on cells; 1.5 x 10^5 MDA-MB-435S cells with 1 µg of each purified VHH, 45 min at 4 °C, PBS with 1% BSA; detected with anti-HA-Alexa Fluor 647; MFI normalised to cells with secondary antibody only; a representative experiment
Settings: one partner purified

Row | Binder | fold increase in binding (normalised MFI) relative to the reference VHH [fold]
1 | B1 | 1.4
2 | B2 | 2
